Data as given in patent publication US8524227B2, “Anti-IL-TIF antibodies” (ZymoGenetics, Inc., priority 2002, dated 2013).

Key:
[1] = Mouse collagen induced arthritis (CIA) model; assay type: in vivo, mice; settings: for IL-6 levels / SAA concentrations: Day 0 serum 4 hr post 25 μg LPS
Procedure: Ten week old male DBA/1J mice (Jackson Labs) were divided into 3 groups of 13 mice/group. On day-21, animals were given a subcutaneous injection of 50-100 μl of 1 mg/ml chick Type II collagen formulated in Complete Freund's Adjuvant (prepared by Chondrex, Redmond, Wash.), and three weeks later on Day 0 they were given a 100 μl (25 μg) injection of LPS from E. coli 0111:B4, prepared as 250 μg/ml from a lyophilized aliquot (Sigma, St. Louis, Mo.). Zcytor16 was administered as an intraperitoneal injection 3 times a week for 4 weeks, from Day 0 to Day 25. The first two groups received either 100 or 10 μg of zcytor16 per animal per dose, and the third group received the vehicle control, PBS (Life Technologies, Rockville, Md.). Animals began to show symptoms of arthritis following the LPS injection, with most animals developing inflammation within 2-3 weeks. The extent of disease was evaluated in each paw by using a caliper to measure paw thickness, and by assigning a clinical score (0-3) to each paw: 0=Normal, 0.5=Toe(s) inflamed, 1=Mild paw inflammation, 2=Moderate paw inflammation, and 3=Severe paw inflammation as detailed below.
All animals were observed daily to assess the status of the disease in their paws, which was done by assigning a qualitative clinical score to each of the paws. Every day, each animal has its 4 paws scored according to its state of clinical disease. To determine the clinical score, the paw can be thought of as having 3 zones, the toes, the paw itself (manus or pes), and the wrist or ankle joint. The extent and severity of the inflammation relative to these zones was noted including observation all the toes for any joint swelling, torn nails, or redness, notation of any evidence of edema or redness in any of the paws, and notation any loss of fine anatomic demarcation of tendons or bones, and evaluation the wrist or ankle for any edema or redness, and notation if the inflammation extends proximally up the leg. A paw a score of 1, 2, or 3 was based first on the overall impression of severity, and second on how many zones were involved. The scale used for clinical scoring is shown below.
Blood was collected throughout the experiment to monitor serum levels of anti-collagen antibodies. Animals were euthanized on Day 21, and blood was collected for serum and for CBC's. From each animal, one affected paw was collected in 10% NBF for histology and one was frozen in liquid nitrogen and stored at […] for mRNA analysis. Also, ½ spleen, ½ thymus, ½ mesenteric lymph node, one liver lobe and the left kidney were collected in RNAlater for RNA analysis, and ½ spleen, ½ thymus, ½ mesenteric lymph node, the remaining liver, and the right kidney were collected in 10% NBF for histology. Serum was collected and frozen at −80° C. for immunoglobulin and cytokine assays.
Approximately 100 μL of peripheral blood was collected by retro-orbital bleed into serum separator tubes (Becton Dickinson). Serum was collected by centrifugation (2-3 min, 16,000×g, 4-6° C.) and stored at −20° C. until analyzed. To determine anti-collagen Ig antibody levels, NUNC plates were coated with 10 μg/mL chick type-II collagen (Chondrex, Redmond Wash.) and incubated overnight at 4° C. Plates were washed with ELISA C, blocked (5 minutes, room temperature) with Super Block (Pierce, Rockford, Ill.), and washed with ELISA C. Diluted serum samples (diluted in ELISA B 5-fold from 1:5000 to 1:625,000) were added to ELISA plates in triplicate and the plates were incubated overnight at 4° C. After incubation, the plates were washed with ELISA C, and peroxidase-labeled goat anti-mouse Ig Fc (Zymed, 1:2000 in ELISA B) was added. The plates were incubated (room temperature, 90 minutes), rinsed again using ELISA C, and HRP activity was developed using o-phenylenediamine dihydrochloride substrate (10 mL NovoD+1 tablet OPD+10 μL H2O2, Pierce). The reaction was stopped with 1N H2SO4. […]

IL-TIF = biological target: T1, IL-TIF (Homo sapiens, UniProt Q9GZX6); test: Effect of zcytor16 on IL-TIF-induced acanthosis; assay type: in vivo, mice; settings: for Average Acanthosis: day 8, score 0-3
T1 construct: made in house; host or cells: BHK cells
T1 sequence (Q9GZX6 34-179): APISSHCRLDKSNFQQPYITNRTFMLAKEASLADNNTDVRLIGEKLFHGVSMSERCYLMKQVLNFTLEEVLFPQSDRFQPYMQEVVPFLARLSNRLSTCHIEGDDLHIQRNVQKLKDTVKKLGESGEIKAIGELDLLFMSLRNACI
Procedure: Mice (female, C3H/HEJ, 8 weeks old; Jackson Labs, Bar Harbor, Me.) were divided into eight groups of eight animals each. IL-TIF was administered by constant infusion via mini-osmotic pumps, as described in example 32a. Alzet mini-osmotic pumps (model 2001; Alza corporation Palo Alto, Calif.) were loaded under sterile conditions with IL-TIF protein (A#601F, 0.22 mL) diluted in phosphate buffered saline (pH 7.0) to a concentration within the pump of 0.22 mg/mL for group 1-2 mice, 0.45 mg/mL for group 3-4 mice, 0.9 mg/mL for group 5-6 mice, or 0 mg/mL (diluent only) for group 7-8 mice. These pumps are designed to deliver their contents at a rate of 0.5 μl per hour over a period of 14 days. Using this nominal rate of infusion, dose levels were calculated to be […] and 0 μg/day for groups 7-8. For each pair of groups at a given dose level of IL-TIF, one of the groups was injected three times (days 1, 3, and 5) with 0.1 mg of human zcytor16 Fc protein (described herein) by the interperitoneal route. The other group was injected in the same fashion with vehicle (PBS).
On day 8 of the study, mice were euthanized and an approximately 1 cm square sample of skin surrounding the pump area was collected from each mouse. The skin was fixed in 10% neutral buffered formalin. Formalin fixed samples of skin were embedded in paraffin, routinely processed, sectioned at 5 um and stained with hematoxylin and eosin. The tissues were microscopically examined in blinded fashion by an ACVP board certified veterinary pathologist. This study was scored in a different manner than the previous example. The number of layers in the epidermis, from stratum basalis to stratum granulosum, was determined Based on the results, the sections were scored as follows: O-normal (2-3 layers), 1-mild thickening (3-4 layers), 2-moderate thickening (4-6 layers) and 3-severe thickening (>6 layers).

Average Acanthosis (IL-TIF; pump 2.5 μg IL-TIF/day + 100 μg zcytor16 (3 injections)): 0.8 | Average Acanthosis (IL-TIF; pump 5 μg IL-TIF/day + 100 μg zcytor16 (3 injections)): 0.6 | Average Acanthosis (IL-TIF; pump 10 μg IL-TIF/day + 100 μg zcytor16 (3 injections)): 1.9 | Average Acanthosis (IL-TIF; pump Vehicle + 100 μg zcytor16 (3 injections)): 0.0
B1: zcytor16-Fc4: soluble receptor for IL-TIF, zcytor16 fused to Fc4; IL-TIF antagonist (protein)
chain: TQSTHESLKPQRVQFQSRNFHNILQWQPGRALTGNSSVYFVQYKIYGQRQWKNKEDCWGTQELSCDLTSETSDIQEPYYGRVRAASAGSYSEWSMTPRFTPWWETKIDPPVMNITQVNGSLLVILHAPNLPYRYQKEKNVSIEDYYELLYRVFIINNSLEKEQKVYEGAHRAVEIEALTPHSSYCVVAEIYQPMLDRRSQRSEERCVEIPEPRSSDKTHTCPPCPAPEAEGAPSVFLFPPKPKDTLMISRTPEVTCVVVDVSHEDPEVKFNWYVDGVEVHNAKTKPREEQYNSTYRVVSVLTVLHQDWLNGKEYKCKVSNKALPSSIEKTISKAKGQPREPQVYTLPPSRDELTKNQVSLTCLVKGFYPSDIAVEWESNGQPENNYKTTPPVLDSDGSFFLYSKLTVDKSRWQQGNVFSCSVMHEALHNHYTQKSLSLSPGK
disease score (paw score, incident of inflammation or disease) ([1]; 10 μg three times a week for 4 weeks): significantly reduced the disease score | IL-6 levels ([1]; 10 μg zcytor16): 10,865+/−1478 pg/ml | SAA concentrations ([1]; 10 μg zcytor16): 348 ± 37 µg/mL | levels of anti-collagen antibodies ([1]; 100 μg or 10 μg groups vs PBS, serum ELISA): no statistically significant effects | IL-6 levels ([1]; 100 μg zcytor16): 9651 ± 1563 pg/mL | SAA concentrations ([1]; 100 μg zcytor16): 381 ± 40 µg/mL | paw scores and measurements ([1]; 100 or 10 μg IP 3 times a week for 4 weeks vs PBS): No statistically significant differences | changes in body weight, CBC parameters, or anti-collagen antibody levels ([1]; 100 or 10 μg IP vs PBS): no significant differences | effect on epidermal thickening (IL-TIF; 100 μg zcytor16 (3 injections), mice treated with 5 μg IL-TIF/day): decreased the amount of epidermal thickening
